Data as given in US20260028403A1 (Zymeworks, published 2026).

What was measured:
[1] = molecular target: T1, CD28 on primary human T cells (human, UniProt P10747 19-220); experiment: cell-based or functional assay
[2] = molecular target: T1, CD28 on primary human T cells; experiment: cell-based or functional assay; remark: listed apart in the source
[3] = molecular target: T2, Recombinant human/cynomolgus/rhesus macaque CD28 mouse IgG2a Fc fusion protein (Acro Biosystems) (human/cynomolgus/rhesus macaque, UniProt P10747 19-152); experiment: SPR Biacore T200, CD28-mIgG2a Fc on CM5
T2 construct: bought; also called huCD28

[4] = molecular target: T3, Recombinant human CD3 epsilon/delta heterodimer, his tag protein (Acro Biosystems) (human, UniProt P07766 23-126; P04234 22-105); experiment: SPR Biacore T200, CD3 e/d-his on CM5, construct injected, 1:1 model;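 also: measured at 25 °C in HEPES-buffered saline with EDTA and Tween 20 at pH 7.4, values are means of three independent runs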
T3 construct: bought

Human CLDN18.2 = molecular target: T4, Human CLDN18.2 (human); experiment: flow cytometry, SNU 601 cells
T4 construct: on transfected HEK293-6E cells or native on SNU 601 cells
Method: To determine the impact of the trispecific construct format on the construct's ability to binding CLDN18.2, the binding affinity to CLDN18.2 was measured for certain constructs using flow cytometry as described below.
To that end, cells (>80% viability) were resuspended to 1×10⁶ cells/mL in FACS buffer (PBS+2% FBS; Gibco) and seeded in a 96 well v-bottom plate (Sarstedt). Cells were mixed with antibody dilutions and incubated at 4° C. for one hour. Following incubation, cells were washed twice by adding 150 mL FACS buffer and centrifuging for 400×g for 3 minutes. […] Cells were washed twice by adding 150 mL FACS buffer and centrifuging for 400×g for 3 minutes. Cells were resuspended in FACS buffer and acquired on the BD LSRFortessa Cell Analyzer.

[5] = molecular target: T5, Recombinant human/Cynomolgus/Rhesus macaque CD28 Protein, His Tag (Acro Biosystems) (human/cynomolgus/rhesus macaque, UniProt P10747 19-152); experiment: SPR, v37634 captured on anti-human IgG Fc on CM5, CD28-his tag flowed
T5 construct: used only for v37634; also called CD28-his tag

| Binder | IC50, T cell-dependent cytotoxicity on SNU 601 [1] | Maximum Killing (%), SNU 601 [1] | IL-2 maximum cytokine, T cells alone [2] | IL-2 maximum cytokine, T cells with SNU 601 cells [2] | TNFa maximum cytokine, T cells alone [2] | TNFa maximum cytokine, T cells with SNU 601 cells [2] | binding result [3] | Kd [4] | koff [4] | kon [4] | Bmax (Human CLDN18.2) | EC50 (Human CLDN18.2) | Kd [5] | koff [5] | kon [5] |
| --- | --- | --- | --- | --- | --- | --- | --- | --- | --- | --- | --- | --- | --- | --- | --- |
| v37690 (trispecific antibody, human IgG1, kappa, L234A L235A, also called v37638 format, CD28 VH Y1112S) heavy 1: not shown heavy 2: QVQLVESGGGLVQPGGSLRLSCSVSGIDLSSNPMIWVRQAPGKGLQYIGIIDTDGSTYYADWAKGRFTISKDSTTVYLQINSPRAEDTAVYYCARRLHGSSNGYYDDLWGQGTLVTVSSGGGGSGGGGSGGGGSGGGGSDGQMTQSPSSVSASVGDRVTITCQASQSIYSYLSWYQQKPGQRPKLLIYKASTLASGVPSRFSGSGSGTDFTLTISSVQPEDFATYYCQQGYTVTNVDKNTFGGGTKVEIKAAEPKSSDKTHTCPPCPAPEAAGGPSVFLFPPKPKDTLMISRTPEVTCVVVSVSHEDPEVKFNWYVDGVEVHNAKTKPREEQYNSTYRVVSVLTVLHQDWLNGKEYKCKVSNKALPAPIEKTISKAKGQPREPQVYVLPPSRDELTKNQVSLLCLVKGFYPSDIAVEWESNGQPENNYLTWPPVLDSDGSFFLYSKLTVDKSRWQQGNVFSCSVMHEALHNHYTQKSLSLSPG light: DIQMTQSPSSLSASVGDRVTITCRASESVEYYVTSLMQWYQQKPGKAPKLLIYAASNVDSGVPSRFSGSGSGTDFTLTISSLQPEDIATYYCQQSRKVPFTFGGGTKVEIKRTVAAPSVFIFPPSDEQLKSGTASVVCLLNNFYPREAKVQWKVDNALQSGNSQESVTEQDSKDSTYSLSSTLTLSKADYEKHKVYACEVTHQGLSSPVTKSFNRGEC | 0.00121 nM | 92.3% | 243 pg/mL | 2700 pg/mL | 23 pg/mL | 518 pg/mL | no binding | – | – | – | – | – | – | – | – |
| v37634 (trispecific antibody, human IgG1, lambda, L234A L235A, CD28 scFv on C-terminus of the CD3 Fab light chain; Het Fc, FcKO; also called CD3xCD28xCldn18.2 trispecific) heavy 1: not shown heavy 2: QVQLVESGGGLVQPGGSLRLSCSVSGIDLSSNPMIWVRQAPGKGLQYIGIIDTDGSTYYADWAKGRFTISKDSTTVYLQINSPRAEDTAVYYCARRLHGSSNGYYDDLWGQGTLVTVSSGGGGSGGGGSGGGGSGGGGSDGQMTQSPSSVSASVGDRVTITCQASQSIYSYLSWYQQKPGQRPKLLIYKASTLASGVPSRFSGSGSGTDFTLTISSVQPEDFATYYCQQGYTVTNVDKNTFGGGTKVEIKAAEPKSSDKTHTCPPCPAPEAAGGPSVFLFPPKPKDTLMISRTPEVTCVVVSVSHEDPEVKFNWYVDGVEVHNAKTKPREEQYNSTYRVVSVLTVLHQDWLNGKEYKCKVSNKALPAPIEKTISKAKGQPREPQVYVLPPSRDELTKNQVSLLCLVKGFYPSDIAVEWESNGQPENNYLTWPPVLDSDGSFFLYSKLTVDKSRWQQGNVFSCSVMHEALHNHYTQKSLSLSPG light: NFMLTQPHSVSESPGKTVTISCKRNTGNIGSNYVNWYQQHEGSSPTTIIYRNDKRPDGVSDRFSGSIDRSSKSASLTISNLKTEDEADYFCQSYSSGFIFGGGTKLTVLGQPKAAPSVTLFPPSSEELQANKATLVCLISDFYPGAVTVAWKADSSPVKAGVETTTPSKQSNNKYAASSYLSLTPEQWKSHRSYSCQVTHEGSTVEKTVAPTECSGGGGSGDIQMTQSPSSLSASVGDRVTITCRASESVEYYVTSLMQWYQQKPGKAPKLLIYAASNVDSGVPSRFSGSGSGTDFTLTISSLQPEDIATYYCQQSRKVPFTFGGGTKVEIKGGGGSGGGGSGGGGSGGGGSQVQLQESGPGLVKPSETLSLTCAVSGFSLTSYGVHWIRQPPGKGLEWLGVIWPGGGTNFNSALMSRLTISEDTSKNQVSLKLSSVTAADTAVYYCARDRAYGNYLYAMDYWGQGTLVTVSS | – | – | – | – | – | – | – | 77.6 nM | 0.0123 s⁻¹ | 163000 M⁻¹ s⁻¹ | 6840 MFI | 27.2 nM | 258 nM | 0.00187 s⁻¹ | 7230 M⁻¹ s⁻¹ |
| v37694 (trispecific antibody, human IgG1, kappa, L234A L235A, also called v37638 format, CD28 VL Y1031A) heavy 1: not shown heavy 2: QVQLVESGGGLVQPGGSLRLSCSVSGIDLSSNPMIWVRQAPGKGLQYIGIIDTDGSTYYADWAKGRFTISKDSTTVYLQINSPRAEDTAVYYCARRLHGSSNGYYDDLWGQGTLVTVSSGGGGSGGGGSGGGGSGGGGSDGQMTQSPSSVSASVGDRVTITCQASQSIYSYLSWYQQKPGQRPKLLIYKASTLASGVPSRFSGSGSGTDFTLTISSVQPEDFATYYCQQGYTVTNVDKNTFGGGTKVEIKAAEPKSSDKTHTCPPCPAPEAAGGPSVFLFPPKPKDTLMISRTPEVTCVVVSVSHEDPEVKFNWYVDGVEVHNAKTKPREEQYNSTYRVVSVLTVLHQDWLNGKEYKCKVSNKALPAPIEKTISKAKGQPREPQVYVLPPSRDELTKNQVSLLCLVKGFYPSDIAVEWESNGQPENNYLTWPPVLDSDGSFFLYSKLTVDKSRWQQGNVFSCSVMHEALHNHYTQKSLSLSPG light: DIQMTQSPSSLSASVGDRVTITCRASESVEAYVTSLMQWYQQKPGKAPKLLIYAASNVDSGVPSRFSGSGSGTDFTLTISSLQPEDIATYYCQQSRKVPFTFGGGTKVEIKRTVAAPSVFIFPPSDEQLKSGTASVVCLLNNFYPREAKVQWKVDNALQSGNSQESVTEQDSKDSTYSLSSTLTLSKADYEKHKVYACEVTHQGLSSPVTKSFNRGEC | 0.00144 nM | 93.1% | 29.9 pg/mL | 226 pg/mL | 12.9 pg/mL | 166 pg/mL | no binding | – | – | – | – | – | – | – | – |
